From patent US20170029794

Key:
[1] = tested on: TALEN left arm (pCLS16715) (artificial (Xanthomonas TALE?)); experiment: cell_activity; details: paired with right arm P1; 153 of 153 galactose colonies of homozygous sup4-(CAG) diploid yeast show repeat contraction; >99% gene conversion in heterozygous …
[2] = tested on: TALEN right arm (pCLS9996) (artificial (Xanthomonas TALE?)); experiment: cell_activity; details: paired with left arm P2; 153 of 153 galactose colonies of homozygous sup4-(CAG) diploid yeast show repeat contraction; >99% gene conversion in heterozygous …

| Sequence | activity [1] [%] | activity [2] [%] |
| --- | --- | --- |
| GTGATCCCCCCAGCA (double strand) [left TALE target site in sup4-(CAG)] | 100 |  |
| GCTGCTGCTGCTGCT (double strand) [right TALE target site in sup4-(CAG)] |  | 100 |
